Measurements: patent publication US20250145711A1 (Janssen / Centocor, published 2025)

Assays:
[1] = molecular target: T1, TRCW5 antigen (CD3δε-Fc-Avi) (biotinylated (site not stated)); test: binding after heat
T1 construct: also called recombinant CD3

[2] = molecular target: T1, TRCW5 antigen (CD3δε-Fc-Avi); test: ELISA

T1 sequence (chain, as listed by the source mutant limits assumed): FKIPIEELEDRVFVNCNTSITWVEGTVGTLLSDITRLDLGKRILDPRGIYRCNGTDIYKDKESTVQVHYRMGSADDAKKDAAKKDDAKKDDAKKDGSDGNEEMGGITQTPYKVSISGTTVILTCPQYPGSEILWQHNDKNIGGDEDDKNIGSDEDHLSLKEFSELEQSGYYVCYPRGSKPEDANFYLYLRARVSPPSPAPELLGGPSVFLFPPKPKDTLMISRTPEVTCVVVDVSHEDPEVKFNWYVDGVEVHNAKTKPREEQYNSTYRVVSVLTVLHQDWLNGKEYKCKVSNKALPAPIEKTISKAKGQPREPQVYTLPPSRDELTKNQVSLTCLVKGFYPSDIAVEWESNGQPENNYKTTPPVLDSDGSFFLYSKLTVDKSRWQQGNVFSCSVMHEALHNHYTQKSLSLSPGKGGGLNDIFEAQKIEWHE

Row | Binder | % Retained 55° C. [1] [%] | % Retained 60° C. [1] [%] | % Retained 65° C. [1] [%] | EC50 [2] [nM]
1 | CD3B2051 N106P (scFv) scFv: QVQLVQSGAEVKKPGSSVKVSCKASGYTFTRSTMHWVKQAPGQGLEWMGYINPSSAYTNYNQKFQGRVTLTADKSTSTAYMELSSLRSEDTAVYYCASPQVHYDYPGFPYWGQGTLVTVSSGGSEGKSSGSGSESKSTGGSEIVLTQSPATLSASPGERVTLSCSASSSVSYMNWYQQKPGQAPRRLIYDSSKLASGVPARFSGSGSGRDYTLTISSLEPEDFAVYYCQQWSRNPPTFGGGTKVEIK | 87.7 | 32.6 | 0.2 | 10.9
2 | CD3B2051 N106V (scFv) scFv: QVQLVQSGAEVKKPGSSVKVSCKASGYTFTRSTMHWVKQAPGQGLEWMGYINPSSAYTNYNQKFQGRVTLTADKSTSTAYMELSSLRSEDTAVYYCASPQVHYDYVGFPYWGQGTLVTVSSGGSEGKSSGSGSESKSTGGSEIVLTQSPATLSASPGERVTLSCSASSSVSYMNWYQQKPGQAPRRLIYDSSKLASGVPARFSGSGSGRDYTLTISSLEPEDFAVYYCQQWSRNPPTFGGGTKVEIK | 54.9 | 1.4 | 0.7 | 15.2
3 | CD3B2051 N106R (scFv) scFv: QVQLVQSGAEVKKPGSSVKVSCKASGYTFTRSTMHWVKQAPGQGLEWMGYINPSSAYTNYNQKFQGRVTLTADKSTSTAYMELSSLRSEDTAVYYCASPQVHYDYRGFPYWGQGTLVTVSSGGSEGKSSGSGSESKSTGGSEIVLTQSPATLSASPGERVTLSCSASSSVSYMNWYQQKPGQAPRRLIYDSSKLASGVPARFSGSGSGRDYTLTISSLEPEDFAVYYCQQWSRNPPTFGGGTKVEIK | 101 | 74.5 | 8.4 | 11.2
4 | CD3B2051 N106S (scFv) scFv: QVQLVQSGAEVKKPGSSVKVSCKASGYTFTRSTMHWVKQAPGQGLEWMGYINPSSAYTNYNQKFQGRVTLTADKSTSTAYMELSSLRSEDTAVYYCASPQVHYDYSGFPYWGQGTLVTVSSGGSEGKSSGSGSESKSTGGSEIVLTQSPATLSASPGERVTLSCSASSSVSYMNWYQQKPGQAPRRLIYDSSKLASGVPARFSGSGSGRDYTLTISSLEPEDFAVYYCQQWSRNPPTFGGGTKVEIK | 101 | 70.9 | 1.5 | 11.1
5 | CD3B2089 N106I (scFv) scFv: QVQLVQSGAEVKKPGSSVKVSCKASGYTFTRSTMHWVRQAPGQGLEWMGYINPSSAYTNYAQKFQGRVTLTADKSTSTAYMELSSLRSEDTAVYYCASPQVHYDYIGFPYWGQGTLVTVSSGGSEGKSSGSGSESKSTGGSEIVLTQSPATLSASPGERVTLSCSASSSVSYMNWYQQKPGQAPRRWIYDSSKLASGVPARFSGSGSGRDYTLTISSLEPEDFAVYYCQQWSRNPPTFGGGTKVEIK | 40.6 | 2.5 | 0.9 | 17.9

These reach a lower EC50 [2]. Values come first.

Row | % Retained 55° C. [1] [%] | % Retained 60° C. [1] [%] | % Retained 65° C. [1] [%] | EC50 [2] [nM] | Binder
6 | 113 | 108 | 33.2 | 10.3 | CD3B2089 N106E (scFv) scFv: QVQLVQSGAEVKKPGSSVKVSCKASGYTFTRSTMHWVRQAPGQGLEWMGYINPSSAYTNYAQKFQGRVTLTADKSTSTAYMELSSLRSEDTAVYYCASPQVHYDYEGFPYWGQGTLVTVSSGGSEGKSSGSGSESKSTGGSEIVLTQSPATLSASPGERVTLSCSASSSVSYMNWYQQKPGQAPRRWIYDSSKLASGVPARFSGSGSGRDYTLTISSLEPEDFAVYYCQQWSRNPPTFGGGTKVEIK
7 | 113 | 101 | 36.2 | 10.1 | CD3B2089 N106F (scFv) scFv: QVQLVQSGAEVKKPGSSVKVSCKASGYTFTRSTMHWVRQAPGQGLEWMGYINPSSAYTNYAQKFQGRVTLTADKSTSTAYMELSSLRSEDTAVYYCASPQVHYDYFGFPYWGQGTLVTVSSGGSEGKSSGSGSESKSTGGSEIVLTQSPATLSASPGERVTLSCSASSSVSYMNWYQQKPGQAPRRWIYDSSKLASGVPARFSGSGSGRDYTLTISSLEPEDFAVYYCQQWSRNPPTFGGGTKVEIK
